Data on 3 molecules can be found in PMC11825685 (Nature Communications, 2024).

In series [1] the target is Mycobacterium tuberculosis (Mtb) PhoP, phosphorylated (Mycobacterium tuberculosis) (UniProt P71814). The experiment in a line: cryo-EM structure.
Series [2] deals with RNAP holoenzyme (sigma A);GlnR (Mycobacterium …, UniProt P9WGZ1;P9WGY9;P9WGY7;P9WGY5;P9WGI1;O53830 1-347;1-1178;1-1316;1-110;1-528;1-255, |). Nature of the series: EMSA. Background: In EMSA bound probe runs differently from free probe, usually more slowly.
A further series addresses T1, Mtb RNAP σ^A (Mycobacterium tuberculosis, UniProt P9WGI1).
T1 sequence: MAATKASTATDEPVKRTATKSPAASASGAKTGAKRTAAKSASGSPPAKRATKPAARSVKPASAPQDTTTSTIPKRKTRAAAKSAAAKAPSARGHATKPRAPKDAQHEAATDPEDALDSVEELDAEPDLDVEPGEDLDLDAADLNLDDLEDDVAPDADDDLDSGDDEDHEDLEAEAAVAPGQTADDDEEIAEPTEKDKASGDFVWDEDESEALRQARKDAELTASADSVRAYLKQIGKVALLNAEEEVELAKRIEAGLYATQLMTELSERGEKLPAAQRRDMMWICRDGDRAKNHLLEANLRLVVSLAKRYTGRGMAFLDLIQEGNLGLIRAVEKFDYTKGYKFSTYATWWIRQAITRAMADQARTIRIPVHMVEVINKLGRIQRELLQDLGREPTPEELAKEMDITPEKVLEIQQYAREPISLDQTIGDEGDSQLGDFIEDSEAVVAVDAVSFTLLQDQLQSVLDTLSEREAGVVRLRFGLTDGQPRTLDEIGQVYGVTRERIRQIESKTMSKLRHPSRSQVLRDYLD
Nature of the series: cryo-EM structure.

The target in another series is T2, Mtb RNAP β subunit (Mycobacterium tuberculosis, UniProt P9WGY9 1-1178).
T2 sequence: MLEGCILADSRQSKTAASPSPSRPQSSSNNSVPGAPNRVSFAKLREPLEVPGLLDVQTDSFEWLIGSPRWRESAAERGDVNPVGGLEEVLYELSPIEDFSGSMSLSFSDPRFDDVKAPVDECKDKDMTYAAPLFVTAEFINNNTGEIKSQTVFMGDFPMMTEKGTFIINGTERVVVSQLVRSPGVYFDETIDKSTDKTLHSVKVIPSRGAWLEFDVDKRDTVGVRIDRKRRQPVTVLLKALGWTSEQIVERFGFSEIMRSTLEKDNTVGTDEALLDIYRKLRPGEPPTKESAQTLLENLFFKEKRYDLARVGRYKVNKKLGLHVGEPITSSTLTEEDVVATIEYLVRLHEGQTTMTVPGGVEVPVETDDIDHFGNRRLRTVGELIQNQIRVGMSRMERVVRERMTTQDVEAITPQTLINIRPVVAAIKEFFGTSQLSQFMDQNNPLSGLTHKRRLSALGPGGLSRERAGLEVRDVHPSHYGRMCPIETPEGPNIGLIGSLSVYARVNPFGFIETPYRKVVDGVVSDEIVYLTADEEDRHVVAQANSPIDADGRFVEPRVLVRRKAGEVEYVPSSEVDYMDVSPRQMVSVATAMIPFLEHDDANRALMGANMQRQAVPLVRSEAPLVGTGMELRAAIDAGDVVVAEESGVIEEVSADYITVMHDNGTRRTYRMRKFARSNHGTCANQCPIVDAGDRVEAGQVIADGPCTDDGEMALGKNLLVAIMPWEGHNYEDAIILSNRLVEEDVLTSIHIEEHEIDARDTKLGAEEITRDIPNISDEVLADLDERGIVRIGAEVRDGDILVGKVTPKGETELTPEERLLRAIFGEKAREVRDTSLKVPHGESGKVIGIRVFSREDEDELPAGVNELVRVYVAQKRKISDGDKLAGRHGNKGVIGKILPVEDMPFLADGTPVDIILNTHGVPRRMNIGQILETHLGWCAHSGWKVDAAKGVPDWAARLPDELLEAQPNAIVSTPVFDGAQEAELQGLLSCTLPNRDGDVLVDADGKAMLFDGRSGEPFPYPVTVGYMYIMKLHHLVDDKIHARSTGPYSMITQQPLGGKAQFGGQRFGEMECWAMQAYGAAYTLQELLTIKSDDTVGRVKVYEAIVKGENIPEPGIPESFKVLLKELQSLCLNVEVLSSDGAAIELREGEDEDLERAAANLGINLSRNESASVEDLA
Nature of the series: cryo-EM structure.

The series “cryo-EM structure” concerns the molecule itself. The experiment in a line: cryo-EM structure.
For another series, the target named is T3, Mtb RNAP α subunit (Mycobacterium tuberculosis, UniProt P9WGZ1).
T3 sequence: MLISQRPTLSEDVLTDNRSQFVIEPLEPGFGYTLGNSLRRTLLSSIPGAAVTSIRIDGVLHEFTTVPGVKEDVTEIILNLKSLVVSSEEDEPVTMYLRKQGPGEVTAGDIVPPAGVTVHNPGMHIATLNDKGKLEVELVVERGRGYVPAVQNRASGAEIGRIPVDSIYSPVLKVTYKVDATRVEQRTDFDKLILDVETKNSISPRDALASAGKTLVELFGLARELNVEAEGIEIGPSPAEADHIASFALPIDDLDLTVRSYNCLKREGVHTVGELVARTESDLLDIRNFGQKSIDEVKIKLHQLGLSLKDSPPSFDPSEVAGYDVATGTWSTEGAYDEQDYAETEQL
Nature of the series: cryo-EM structure.

The molecule “Mycobacterium tuberculosis (Mtb) PhoP, phosphorylated (from UniProt P71814 1-247) (natural protein)” showed a stoichiometry N in series [1] of 2.

B1: phoU promoter (mango-fused) (dsDNA)
DNA 1: ACCTCGAACACTCGTCGCCCAGAGTTCACCTTGGAGCCAGGGACGGTTCATTTGGGGTGCCGGAAACGGACGCGTACAGGCCGGAACGTGTAAGCGTGGGGGCACGGCGGGGGGCGCGAAGCCGGCACGTACGAAGGAAGGATTGGTATGTGGTATATTCGTACGTGCC
DNA 2: GGCACGTACGAATATACCACATACCAATCCTTCCTTCGTACGTGCCGGCTTCGCGCCCCCCGCCGTGCCCCCACGCTTACACGTTCCGGCCTGTACGCGTCCGTTTCCGGCACCCCAAATGAACCGTCCCTGGCTCCAAGGTGAACTCTGGGCGACGAGTGTTCGAGGT
On to B1, for which the binding result in series [2] is reported as “no binding”.

B2: Mtb GlnR (natural protein)
chain: MLELLLLTSELYPDPVLPALSLLPHTVRTAPAEASSLLEAGNADAVLVDARNDLSSGRGLCRLLSSTGRSIPVLAVVSEGGLVAVSADWGLDEILLLSTGPAEIDARLRLVVGRRGDLADQESLGKVSLGELVIDEGTYTARLRGRPLDLTYKEFELLKYLAQHAGRVFTRAQLLHEVWGYDFFGGTRTVDVHVRRLRAKLGPEHEALIGTVRNVGYKAVRPARGRPPAADPDDEDADPGRDGMQEPLVDPLRSQ
Regarding B2, the binding result with Mtb RNAP σ^A, in the series with Mtb RNAP β subunit, in “cryo-EM structure” and with Mtb RNAP α subunit was “binds” in each case.

For orientation: stoichiometry N means the number of molecules, sites or subunits per partner or assembly.
